The test system of one series is P45520. The series can be described thus: microfluidics-coupled TIRF microscopy of single filaments; barbed end depolymerization of ADP-Pi filaments, F-buffer with KCl replaced by 40 mM K2HPO4 and 10 mM KH2PO4. As to conditions: other: microfluidics-coupled TIRF microscopy of single filaments.
Series [1] deals with Leishmania major actin (Leishmania major) (UniProt P45520). The series is described as follows: microfluidics-coupled TIRF microscopy of single filaments; pointed end depolymerization: pre-polymerized ADP-F-actin injected over 10 nM biotin-gelsolin held on neutravidin, F-buffer with 0.4 mM CaCl2, then F-buffer.
For series [2] the target is unchanged. The series is described as follows: microfluidics-coupled TIRF microscopy of single filaments; barbed end polymerization from surface-anchored spectrin-actin seeds, G-actin with equimolar profilin in F-buffer (5 mM Tris-HCl pH 7.4, 50 mM KCl, 1 mM MgCl2); segmented, mixed or ATP-ATTO-488 filaments.
For series [3] the target is unchanged.
Series [4] shares this target. The source holds these as a separate data set.
Series [5] has as its target rabbit skeletal muscle α-actin (rabbit (Oryctolagus cuniculus)) (UniProt P68135).

For the substance Leishmania major actin, the “barbed end depolymerization rate, ADP-Pi-actin” value in the series on P45520 is recorded as about 6 subunits/s. In series [1], “Leishmania major actin (from UniProt P45520 2-376) (natural protein)” yielded a pointed end depolymerization rate, ADP-actin of 3.5 subunits/s. Moreover, the barbed end polymerization rate constant (with equimolar LmProfilin) (subunits/s/μM) in series [2] came to 6. In series [3], “Leishmania major cofilin (natural protein)” displayed a global fragmentation rate of LmActin filaments by LmCofilin against RbActin filaments by mammalian cofilin-1, microfluidics-coupled TIRF microscopy of 100 fold.

In series [4], “Leishmania major twinfilin (natural protein)” gave a barbed end depolymerization rate of ADP-LmActin filaments without actin monomers, with LmTwf (0.1 and 1 μM) against buffer only of 3 subunits/s; a barbed end polymerization rate with 1 μM LmActin, 1 μM LmProfilin and 0–4 μM LmTwf; net depolymerization above 0.2 μM LmTwf of 8 subunits/s. The substance also gave a depolymerization rate of ADP-RbActin filaments with LmTwf in series [5] of 0.5 subunits/s.

The record behind these values is paper PMC9200798.
